Molecular target: T1, HVPGG site of Tau (15-mer array peptides containing HVPGG) (human)
T1 peptide: HVPGG
Experiment: peptide microarray; HVPGG site of the fourth repeat region against HQPGG (repeat region 1)
Method: The diluted antibody was incubated on the chip for 16 hours at 4° C. with shaking at 140 rpm. Primary antibody was removed and the chip was washed in PBS (pH 7.4)/0.05% Tween 20. Wash buffer was removed and goat anti-mouse IgG (H+L) DyLight™680 (1:5000) and an anti-HA tag DyLight™ 800 (1:2000) in the same buffer as the primary antibody was then incubated for 45 minutes at room temperature on the chip. Detection antibody was removed and the chip was washed once again as previously. Fluorescence images were acquired on the LI-COR Odyssey™ Imaging System and the microarray data was finally analyzed using the PepSlide™ Analyser software.

fold preference in binding (average signal intensities): 35 fold
B1: murine 7G6 antibody (antibody, mouse IgG2b, V domains shown)
VH: QVQLLQPGAELVKPGASVIMSCKASGYTFTTYWITWVKQRPGQGLEWIGDIYPGSSICNYNEKFKSKATLTVDTSSSTAYMQLNSLTSEDSAVYYCAREDGYDAWFAYWGQGTLVTVSA
VL: DVLMTQTPLSLPVSLGDQASISCRSSQSILHSNGNTYLEWYLQKPGQSPKLLICKVSNRFSGVPDRFSGSGSGTDFTLKISRVEAEDLGVYYCFQGSHVPFTFGSGTKLEIK
notes: Mouse IgG2b, kappa, purified from hybridoma; also called ms7G6; mouse 7G6
